Results taken from a protein production outcome set (Wang et al. 2014).

Test: label from the status in PepcDB records
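Further: failed if final PepcDB status was selected cloned or expressed and not failed if soluble or beyond.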

Row | Sequence | protein production
1 | MKGILFAVFAGIFITLQGTFNAKLSSHIGIWSTSIITHLIGFIIATTVFLLKKEEKVTDLKSVKKIYLVAGAFGGFIICAETMAIYSLGVTLTAGTLMAAQLLTATVIEMKGLFHIKKIQMERYHIVGTIVMIIGIVVFNM | failed
2 | MGLSHKFQVKQFVEISPYSQSRLRHEQPQTPIHSDITTYHCHRGQFDIVAGGLPCQGTSNAGNRQGLDDPRSALWAEQFRIIESDRPAIALIENPTGLLYRGLEQIICDLDSIGYMGEWNCISAQQVGLPHQRKRIFIIAYSNGLFNQVVPAPWSNQIGNHITQVRLSLETRSYQPGISKVASRIPIGVAKNIPGNYDARRAYGLSCSPRQAAVAWKRIDYLCSLLEHHHHHH | failed
3 | MLNPVSQLSQAIRENTEHLAEKMKILFQNTGRAWEDLEARINAENEVPILKTSNKEISSILKELRRVQKQLEVINAIVDPSGSLDLLTGNRSLASSAQPGLGKGRVAAQSPPSPASAEALLPALPLRNFPQRASCGPPSLPDPTFLPDAERFLI | failed
4 | MDQLSEKQIWYYHIIPEYQTEKSFYACVRRSGMIKFDTFYFPHMLSARETQRSIKFGDGVWSGCLYDPDIYTDGKISIQGVGGVLFPREAEIGGCVCLCLIFLIKLGLSTKYMKSHVSFDVSCDL | failed
5 | MTTIHFHNVYVASRGTSVGLLEKQGPLGNRFDYTHEDNTCQQDSFEKAERYMLQEAVDATIRKSDYSIKDIEVMIGGDLINQLTSSHYFAKEFPISFLGMYAACASSSLVIGQAALWVEHQLAKTALAFTSSHVATAERQFRFPNEYGIQKKETTTCTVTGAGAVLLSRKKSKLKVASFTVGKVVDWQYNDANDMGVAMAPAAYDTLTTYFKDTNQSFQDFDLIVTGDLSKLGFAFLRDLLLQNGYCCEEKLQDCGLMIYDIVKQNVFCGGSGCACSMCVSMTKLLDLLEQQEARRIMVLATGALLSPIAIQQKESIPCIAHAIVYERS | failed
6 | MAPDASTALAAREKVQQILNAACTGNLEFLKNVAKQLDEGKDLTKTVESIKDANKRGALHFAAREGQTEICRYLLEELKLNADAKDETGDTPLVHAARQGQIETVKYLLEQGADPNIASELGATALHHAAGTGEIELLKELLSRGVPVDSESESGTPLIWAAGHDQKNAVEVLLEHNANPNAETEDNITPLLSAVAAGSLSCLELLVKAGAKANVFAGGATPLHIAADIGNLELINCLLKAGADPNQKDEEGNRPLEVAAARDNRKVVEILFPLTTKPETVSDWTVDGILAHMESNKEQEENSNKAKSQETGIKKDLPVVSPEAKAKAAEAKARGQDAFHRKDFQMAIDAYTQAIDFDPTDHTLFSNRSLCWLRLGQAEHALSDAKACRELNPDWPKGCFREGAALRLLQRFDEAANAFYEGVLLSPESKELIDAFREAVDAGRKFHGKGEVKAKS | failed
7 | MFLFLTCKIGNRMVKLRTFINISEDLFVIRNLIGAILQGIGLAYLVPVLLAWFYPEEIPLVIYFAIPGFSCIILGWVLSKHMEKIEDVNLRQAMMASAFIWLFASLVSVIPFMGIAKMRFVDSYFETMSAWTGTGLTMMSNLESYPKILLFWRAWMQWLGGIGIVLVALTVLIRPGVAAARLYKAEARSERILPNFVNTAKIIVQIYAVLTLLGIYLYYSNGMSLFDATIHSMTGLGTGGMSSHDLSIGYFNSLAIETVTVFLMIMGATNFTVHYRMFKNRSLKEFFRDIQVRYMLYFITLIVALMTYSLVFFGHLTPIRALRESIFHAVSAITCTGFGISNLAEYPEIDKILLAILMVIGGSAGSTSGGIKLIRIVLMYQSLKWTIEQAILPKGAVIRKRVNGYEFTEEEIQEVLGFTMTYIAFLLLGTLYIMLRLGVRFADALFEVASAIGNVGLSVGITSPLLPLDIKILLTILMWVGRLEIFSTIVFIVGLAMIFSRRSKE | failed
8 | MRVAILGCGYVGCALARRLLAAGHDVVGVCRSPDSLDAVRETGATAVRADVTDAASLAAVPDADAVVFAASSGGRGADAAREVYVDGLRTVVEQFGGRDDPPEQLVYTSSTGVYGDHDGDWVDEETPLDPTTEKTAALVDAERVALTDASEHGLDPTVVRFAGLYGPDRYRLTRYLDGPVTEGYLNMIHRDDAAGVVAFALTDADADVLLAVDDDPVSKWAFADWLADEAGVPQPAKQTVAERIAAGDLSTPAERRLRTSKRCSNARLTELGYSFAHPTFRSGYQAAIRAHERGEYK | failed
9 | MLAEAGTGTGVAAAASHDAPPKAVPRQLPAPPRITAFLSAFATPPPHCLRLNKSLNGLHNPVTLHVVCQYMLLRSVHGGRERYLNAHVSQGSWPVLVLNADFRPLSYYPLSLWSWQDAIKAVFLDRVNIVAHYDQAVRSPTLEMQLPSVVSLKSFVKPTTHPAFTRFNVFLRDRFACQYCGSPEDLTFDHIIPRSKGGQTTWENVVAACSPCNLRKGNLTPAQAKMFPRQSAFAPTVHQLHRNGRMFPPNYLHDSWLDYLYWDTELDP | failed
10 | MTLNRILWNYLIAPTVITIAVCGCTTQTPNTQDLIAQSPKDSQLVRTLSARSDSGYSVAYSPSSVGTILASAGAKSIKLWNPNTGKLLRTLSGQAFTVSFSPDGQILASGSQDGSLNLWDVQTGKLIRTLQHSEPVLGVVFSPDGQTLVSNLDLGSIIRLWNWRTGEIIRIKDDPDAYQKGFENFKTQPATFSLDGQTLFATSGSGSMLQSWNLKTSKRTGSFDAKSSINAVAISPDGNTLATGIRDNAIKLWNINDGKLIHTLTGHQGQVRTVAFSPDGTLLASGSSDGTVKLWNATTGKEINTFTAHKEQVWSVAFNPDGKTLASTGQDGSVKIWGVSPQ | failed
11 | MKKLILSALVLGGAMTFTAQAQNKAAEPAEEFFLEGRAMFIRQNYVGALDQFRLYRLHVGQEHALEVDYYSIIADYLLGADHDYVLSAVGNFLDNFPESIDKSRVRLLTGELMIRHEQYLRANTIFSDIDDRTLNDEDLAAYLLYYAYVRMQLSESNALAEQMLLKASESRGELGGRACLLLAAIQIEDGRIDEAEQTLSRLKNRPQFADEADAYIAEIQLLRGDYREAAEIADRLLSRNSPMRQRPQLLRVAGNAYYRLGDSNKTIDYLSDYSEKVGDRIAPADAYALGVTYYKQGLMKEALRPLAAATTDAGSLGAESALYLGQAQLAEGMTSEALMAFEKAATQDVNRPVREVGMYNMAMLMRSTGQSSFGQSVRIAENFLNEFPRSSHREQMAAILVESYFTGKDYNSSLRSIQKIAQPTASILAAKQFVLNRMAEQKEAAGYDSEALSFVSSSISMGNKGEYFPEAYFLRGNLRYRAGDFPTAAADYRAYISAAGDRDAANLPLGYYRLGYSLFNAERYDMALEAFKEYVSRSGIAPNLSADAYARIGDCRYMKRDFHGAREAYSMAYRVYPSGGDYALLRRARLEGLAKQYADQIQTLDKLIREFPDSRHLTAALYEKGCGAVLSGKHNVAEEAFNAVVKRSPDSREARQSSLQLGLLYYNTGRTKEAIRTYQRIIDRYPRSEETTVALSDLRSIYLEEDRIDEYSTYVRGLKDKVSIAPSETEQLGFLSAERKYRRRQPDARRDLEAYLERYPQGSDRHKAELYLADLDYQAGNADAAYNRYSRLVNSPGLPEDYKIDARLRLGRMQYERKEYKAALQSFQSVLDTDGAEAVRDQAVQGVTESAYADKDYRRVIDVIAGLKNQAALPHTLRLYRAKSYQALKMNREAIADYELLAEDFSTATGAEAVVMQAQLEMEAKRLSKAKSILEKFIAKSTPQQYWLARGFILLSDIYKKEGDTFTARQYLESLEKNYPNHEDDIHEQIAQRLE | failed
12 | MTGNSFHVSGYGPDKAGWTRLFARDSMARRLDWPILLAAVALSLMGSLLVYSATRNRTELNQGDQYYFLTRHLLNTGIGLALMVATVWLGHRALRTAVPLLYGFSVFLILLVLTPLGSTINGAHSWIKLPGGFSLQPSEFVKITIILGMAMLLAARVDAGDRPHPDHRTVLQALGLATVPMLIVMLMPDLGSVMVMVIIVLGILLASGASNRWIFGLLGAGTAGALAVWQLGILDDYQIARFAAFANPALDPAGVGYNTNQARIAIGSGGLTGSGLFEGSQTTGRFVPEQQTDFVFTVAGEELGFLGAGLIIALLGVVLWRGCRIARSTPDLYGTVVAAGIVAWFAFQTFENVGMTLGIMPVTGLPLPFVSYGGSSMFAVWIAVGLLQSITVQRPMSA | failed
13 | MRERAASARGVQLARSSRVFRKAEWWNDARRFRTVIASAAKQSDRHRGDSPGLLRCARNDACEAMAERHTATGSDRSTSSLASFELRVERNATFPGNVTRLLHLIVVLLLVAGRTAFAAPCQFESQGDGRVAAIVDARSVRLDDGREIRLTGIEPTATTKQALASLLVGRDVTLRSADDTPDRYGRQGGLIFIGDSDTPVQAMLLAQGDAIVSAEIADKDCAAALMSSEAEARRQKKGNWADPSAIKNAESPDDILAGIGRFVVVEGKVLSVRQAGAMTYLNFGRNWTRGFAVTISRRASPAFETAGIALKSLENRRIRVRGWVEGNTGPRIDVRLVGQVELLGANEPAGVRP | failed
